According to PMC12914960, “Repurposing a detrimental antibody epitope as targeted therapeutics for sepsis and rheumatoid arthritis” (Military Medical Research, 2026):
Where no end group is shown, it is not given here. [ ]: non-standard residue; d: D form. Nle = CCCC[C@H](N)C(=O)O

Assays:
[1] = tested on: CLP-induced sepsis in BALB/c mice; experiment: Septic survival after cecal ligation and puncture (CLP); assay type: in vivo, mouse; settings: P2 5.0 mg/kg twice at 2 h and 24 h post-CLP, i.p.
Protocol: Experimental sepsis was induced in BALB/c mice via CLP as previously described. […] The animals were randomly assigned to the control vehicle (n = 10 or n = 20) or experimental groups (n = 10 or n = 20). P2 (5.0 mg/kg), P2-1 (0.1 mg/kg or 1.0 mg/kg), or tetranectin N-terminal deletion mutant (ΔTN) (1.0 mg/kg) were administered intraperitoneally (i.p.) at the indicated time points, and survival rates were monitored. To elucidate P2-1’s protective mechanisms, a separate group of BALB/c mice (n = 4) underwent CLP and received P2-1 (1.0 mg/kg) at 2 h and 20 h post-CLP. At 24 h post-CLP, the animals were euthanized, blood was collected, and serum cytokines and chemokines were measured via murine cytokine antibody arrays as previously described. More details are presented in Additional file 1: Methods.
For these preclinical studies, animals were random ly assigned to experimental groups and treated with P2, P2-1, or a pCTS-L-neutralizing mAb2 according to the indicated dosing regimens. Outcomes, including septic survival rates, arthritis severity, pain sensitivity, and joint tissue histology scores, were collected under blinded experiment al conditions. The study d esign and sample si zes fo r each exp eriment are d etailed in the figure legends. No data, including outlier values, were excluded. For skewed data, outliers were defined via the interquartile range (IQR) method as any value below Q 1 –(1.5 × IQR) or above Q 3 + (1.5 × IQR). For normally distributed data, outliers were defined via the Z-score method as any value with an absolute Z-score greater than 2 or 3. The primary data are reported in Additional file 4. All the reagent sources are listed in Additional file 1: Table S1 .
Cecal ligation and puncture (CLP) sepsis model […]
screening. c Expression and purification of recombinant full-length human TN (residues 1 – 181) and its N-terminal deletion mutant ( ΔTN, residues 45 – 181). […] Recombinant Δ TN was given intraperitoneally at 24 h and 48 h post-C L P, and animal survival rates were monitored. *P < 0.0 5. […]

Water solubility = assay type: physicochemical; settings: qualitative, text in Fig. 1d
human PBMCs [2] = experiment: RNA-seq of HMGB1-stimulated PBMCs; assay type: cell-based
Protocol: Total RNA was isolated from human PBMCs (n = 6 biological replicates) stimulated with HMGB1 in the absence or presence of P2-1 (5.0 or 10.0 µg/ml) via the RNeasy Mini Kit (Qiagen, Germantown, MD, USA) according to the manufacturer’s instructions. cDNA libraries were prepared using the TruSeq RNA Library Prep Kit v2 (Illumina, San Diego, CA, USA) and sequenced on an Illumina NovaSeq 6000 platform to generate 100 bp paired-end reads. Gene counts were quantified via StringTie and DESeq2 for differential gene expression analysis. Volcano plots and heatmaps were generated via ggplot2 and pheatmap packages in R, respectively. Genes with an adjusted P-value < 0.05 and a |log2 fold change|> 1 were considered differentially expressed. […]
custom-synthesized (Gen Script, Piscataway, NJ, USA). P2 -1 was engineered to: i) increase solubility by removing a w ater-insoluble phenylalanine (F) at the C-terminal residue 70 and introducing a water-soluble threonine (T) at N-t erminal residue 54; and ii) reduce oxidative susceptibility by substituting methionine (M) with norleucine (Nle) and cysteine (C) with serine (S), respectively. The pCTS -L-neutralizing mAbs (mAb2) and TN-neutrali zing mAbs (mAb8 and m Ab9) were generated in BALB/c and C57BL/6 m ice as previously described .
RNA sequencing (RNA- Seq) and bioinformatics analysis
Total RNA was isolated from human PBMCs (n= 6 biological replicates) stimulated with HMGB1 in the absence o r pres ence o f P2-1 (5.0 or 10.0 µg/ml) via the RNeasy Mini Kit (Qiagen, Germantown, MD, USA) according to the manufacturer ’s instructions. RNA quantity and quality were assessed via a NanoDrop spectrophotometer, which requires A260/280 and A260/230 ratios to both be > 1.8. Samples meeting these criteria were then sent to two sequencing facilities, where RNA integrity was further confirmed via an Agilent Bioanalyzer. Only samples with an RNA integrity number of 8 or above were accepted for RNA sequencing. cDNA libraries were prepared using the TruSeq RNA Library Prep Kit v2 (Illumina, San Diego, CA, USA) and sequenced on an Illumina NovaSeq 6000 platform to generat e 100 bp paired-end reads. Our data filtering criteria adhered to industry best practices to ensure data quality.
First, raw sequencing reads underwent quality assessment with FastQC, followed by adapter and low-quality nucleotide trimming using Trimmomatic v.0.36. Subsequently, the high- quality reads wer e aligned to the Homo sapiens GRCh38 reference genome using the STAR aligner v.2.5.2b. Following alignment, PCR duplicates were identified and removed with Picard tools to mitigate amplification bias. Before differential expression an alysis, the gene count matrix was filtered to retain only genes with a count-per-million (CPM) > 1 in at least three samples (n = 3, representing our smallest experimental group). This rigorous procedure ensured that analysis was perfo rmed on a robust set of reliably expressed gen es. Finally, gene counts were quantified via StringTie and DESeq2 for differential gene expression analysis. Volcano

human PBMCs [3] = settings: TN; ref [21]; cited from earlier work
Excerpt: To validate these RNA-seq findings, we quantified HMGB1-induced cytokine/chemokine protein levels using cytokine antibody arrays. Consistent with our RNA-seq data, HMGB1 stimulation led to a significant increase in the protein levels of various cytokines (e.g., TNF, IL-6, and IL-10) and chemokines (e.g., CXCL5/ENA-78, CXCL1/GRO-α, CXCL8/IL-8, CCL2/MCP-1, and CCL7/MCP-3) in human PBMCs (Fig. 6b), confirming its potent immunomodulating activities.

[4] = tested on: Differentiated human macrophages; settings: TN; ref [21]; cited from earlier work
Excerpt: Crucially, our findings reveal a striking dichotomy in the biological effects of full-length TN and its derived peptide, P2-1, on HMGB1-mediated detrimental macrophage responses. […] We propose that full-length TN, when complexed with HMGB1, may engage unidentified macrophage surface receptor(s), thereby facilitating receptor-mediated endocytosis of TN/HMGB1 complexes and ...

[5] = tested on: Differentiated human macrophages; settings: full-length TN; ref [21]; cited from earlier work
Excerpt: To investigate P2-1’s effect on HMGB1 endocytosis, differentiated human macrophages were exposed to Alexa Fluor 555-labeled HMGB1 under various conditions (Fig. 5d).

[6] = target: T1, Recombinant human high mobility group box 1 (HMGB1) (human, UniProt P09429 1-215); experiment: SPR; Nicoya OpenSPR; recombinant human HMGB1 immobilized on a carboxyl sensor chip, P2-1 flowed over at various concentrations in HBS-P buffer; 1:1 interaction model; three independent experiments; settings: both partners purified
T1 construct: high mobility group box 1 (HMGB1); the SPR methods say recombinant human HMGB1; the SPR paragraph says human; The protein on the chip may be that rat construct
T1 sequence (looked up): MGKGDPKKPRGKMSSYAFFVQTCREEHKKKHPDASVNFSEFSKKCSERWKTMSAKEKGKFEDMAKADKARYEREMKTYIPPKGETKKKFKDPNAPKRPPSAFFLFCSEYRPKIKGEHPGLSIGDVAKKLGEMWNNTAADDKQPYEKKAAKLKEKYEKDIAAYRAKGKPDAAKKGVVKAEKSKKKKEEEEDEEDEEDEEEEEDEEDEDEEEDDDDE

[7] = tested on: CLP-induced sepsis in BALB/c mice; settings: text in Fig. 1b; mAb8 22% to 77%, mAb9 80% to 50%; ref [21]; cited from earlier work
[8] = tested on: synthetic TN peptides (P1 – P10); experiment: Epitope mapping of mAb8 and mAb9 by dot blotting against TN peptides P1 – P10; assay type: binding, human; settings: 10 synthesized TN peptides, mAb 1.0 µg/ml, chemiluminescence
Protocol: remove unbound protein and then fixed with 4% paraformaldehyde for 20 min at room temperature.
Coverslips were mounted onto slides via Vectashield Mounting Medium for fluorescen ce with DAPI (Cat.
#H-1200, Vector Laborat ories, Inc., Newark, CA, USA) for nuclear counterstaining. Endocytic uptake of Alexa Fluor 555- labeled HMGB1 (red) was visualized via the Olympus IX51 inverted fluorescence & phase contrast tissue culture microscope. Cellular HMGB1 uptake was quantified by measuring the mean fluorescen ce intensity of the Alex a- 555- labeled HMGB1 protein within multiple representative cells via ImageJ an alysis software.
Antibody sequencing and antigen contact structure (ACS) prediction
Total RNA was extracted from mAb8 and mAb9 hybridoma cells via TRIzol (Invitrogen, Austin, TX, USA), and cDNA was synthesized via reverse transcriptase. […]
Corresponding to the C-terminal portion of the TN protein (Additional file 1: Fig. S4a) , a library of 10 synthetic peptides (P1 – P10, Additional file 1: Fig. S4b ) was spotted (0.1 μ g in 2.5 μ l) onto nitrocellulose membranes (Cat No. 88013, Thermo Scientific, Waltham, MA, USA ). […] After washing, the membranes were incubated with HRP-conjugated goat anti-mouse IgG (Jackson ImmunoResearch, West Grove, PA, USA), and signals were detected via chemiluminescence as previously described [ 1].

## KVHMKCFLAFQTKTF [P2]
[1]
  septic survival, in words: significantly increased survival rates in both male and female mice
Water solubility
  Water solubility: Poor water solubility

B1: HMGB1: recombinant HMGB1 protein used as stimulus (protein)
chain: T1 sequence (looked up)
Human PBMCs [2]; CXCL5 (ENA-78), P-adjust 3.97E-166
  Log2 Fold change: 9.951
Human PBMCs [2]; CXCL8 (IL-8), P-adjust 1.17E-133
  Log2 Fold change: 5.985
Human PBMCs [2]; HMGB1-only group, human PBMCs
  Ctsl mRNA upregulation: 3.4 ± 0.3 -fold
Human PBMCs [2]; IL1B (IL-1β), P-adjust 1.29E-157
  Log2 Fold change: 8.223
Human PBMCs [2]; MT1G (Metallothionein-1G), P-adjust 9.98E-141
  Log2 Fold change: 9.377

B2: TN: full-length human tetranectin (protein, UniProt P05452 1-202, looked up)
chain: MELWGAYLLLCLFSLLTQVTTEPPTQKPKKIVNAKKDVVNTKMFEELKSRLDTLAQEVALLKEQQALQTVCLKGTKVHMKCFLAFTQTKTFHEASEDCISRGGTLGTPQTGSENDALYEYLRQSVGNEAEIWLGLNDMAAEGTWVDMTGARIAYKNWETEITAQPDGGKTENCAVLSGAANGKWFDKRCRDQLPYICQFGIV
modifications: full-length
notes: full-length human tetranectin
Human PBMCs [3]
  HMGB1-induced cytokines/chemokines, in words: did not affect HMGB1-induced cytokines (e.g., IL-6) or chemokines (e.g., MCP-1)
[4]
  HMGB1 endocytosis and macrophage pyroptosis, in words: enhances HMGB1 endocytosis and subsequent macrophage pyroptosis
[5]
  HMGB1 cellular uptake, in words: significantly increased HMGB1 uptake

## TKVH[Nle]KSFLAFQTKT [P2-1 peptide, water-soluble derivative of the tetranectin P2 epitope peptide]
[6]
  Kd: 16.9 nM

B3: mAb8: protective anti-tetranectin monoclonal antibody (antibody, V domains shown)
VH: DVNLVESGGGLVKLGGSLKLSCADSGFTFSSYYMSWVRQTPEKRLELVAAINSNGGRTYYPDTVKGRFTISRDNAKNTLYLQMSSLKSEDTALYYCARQGKNGLDYWGQGTSVTVSS
VL: DIQMTQTTSSLSASLGDRVTISCRASQDISNHLNWYQQKPDGTIKLLIYYTSRLHSGVPSRFSGSGSGTDFSLSISNLEQEDIATYFCQQGKTLPPTFGGGTKLEIK
[7]
  survival in sepsis: 77%
[8]
  epitope peptide recognised (dot blot): targeted P5
